Target: T1, complement iC3b on erythrocytes (EAiC3b) (human, UniProt P01024 23-667; P01024 749-1303; P01024 1321-1663, limits assumed)
T1 construct: iC3b is a multi-chain fragment of C3; also called human iC3b
Test: fluoresceinated EAiC3b on immobilized protein
Protocol: For the inhibition studies, E were preincubated with each recombinant protein or pure peptide in the presence of 2% BSA for 5 minutes at RT and added to wells coated with immobilized protein or peptide without washing, unless otherwise indicated. At the end of the binding reactions, wells were washed, examined briefly by light microscopy then solubilized with 1% SDS-0.2 N NaOH. Fluorescence was quantified (excitatory wavelength, 490 nm, emission wavelength, 510 nm) using a SLM 8000 fluorometer (SLM Instruments, Urbana, Ill.). In experiments where the effects of individual divalent cations were measured, Ca²⁺ and Mg²⁺ were replaced with metal-free buffers or with buffers containing each cation at 1. MM, unless otherwise indicated. The effect of temperature was evaluated in the presence of 1 mM MnCl₂ at 37° C. and at 4° C.

T1 sequence (P01024 23-667 limits assumed, chain 1 of 3): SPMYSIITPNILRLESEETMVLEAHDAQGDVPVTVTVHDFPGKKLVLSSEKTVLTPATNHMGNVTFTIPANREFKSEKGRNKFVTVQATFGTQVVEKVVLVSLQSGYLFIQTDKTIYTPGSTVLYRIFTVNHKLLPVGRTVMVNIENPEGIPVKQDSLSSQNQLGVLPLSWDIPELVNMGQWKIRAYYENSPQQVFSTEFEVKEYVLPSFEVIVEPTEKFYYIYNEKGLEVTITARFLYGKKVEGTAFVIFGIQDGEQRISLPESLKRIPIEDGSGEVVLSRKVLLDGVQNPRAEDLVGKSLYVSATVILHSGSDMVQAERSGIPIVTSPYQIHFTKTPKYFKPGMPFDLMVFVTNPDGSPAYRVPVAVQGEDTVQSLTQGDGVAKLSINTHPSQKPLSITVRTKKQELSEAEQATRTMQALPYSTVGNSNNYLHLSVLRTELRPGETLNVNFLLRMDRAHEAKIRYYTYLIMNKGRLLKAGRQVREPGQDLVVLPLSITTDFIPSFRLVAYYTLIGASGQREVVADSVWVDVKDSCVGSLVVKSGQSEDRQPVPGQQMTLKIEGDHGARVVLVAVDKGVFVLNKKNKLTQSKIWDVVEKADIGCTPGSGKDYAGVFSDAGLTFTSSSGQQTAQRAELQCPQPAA
T1 sequence (P01024 749-1303 limits assumed, chain 2 of 3): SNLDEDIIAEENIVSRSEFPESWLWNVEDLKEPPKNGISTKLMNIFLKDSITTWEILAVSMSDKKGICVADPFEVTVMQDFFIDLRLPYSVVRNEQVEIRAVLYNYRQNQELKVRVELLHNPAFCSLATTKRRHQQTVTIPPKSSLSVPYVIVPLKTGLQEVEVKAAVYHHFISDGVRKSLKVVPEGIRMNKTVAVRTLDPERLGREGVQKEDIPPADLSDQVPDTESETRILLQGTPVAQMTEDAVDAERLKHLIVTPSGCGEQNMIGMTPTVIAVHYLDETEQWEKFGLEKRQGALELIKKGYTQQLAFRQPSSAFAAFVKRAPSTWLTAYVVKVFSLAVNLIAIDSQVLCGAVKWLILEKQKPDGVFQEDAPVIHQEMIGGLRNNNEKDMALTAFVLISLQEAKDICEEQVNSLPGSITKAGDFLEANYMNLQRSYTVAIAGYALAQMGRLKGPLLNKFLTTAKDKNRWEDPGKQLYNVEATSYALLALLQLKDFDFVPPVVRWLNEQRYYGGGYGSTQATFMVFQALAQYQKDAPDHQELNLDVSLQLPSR
T1 sequence (P01024 1321-1663 limits assumed, chain 3 of 3): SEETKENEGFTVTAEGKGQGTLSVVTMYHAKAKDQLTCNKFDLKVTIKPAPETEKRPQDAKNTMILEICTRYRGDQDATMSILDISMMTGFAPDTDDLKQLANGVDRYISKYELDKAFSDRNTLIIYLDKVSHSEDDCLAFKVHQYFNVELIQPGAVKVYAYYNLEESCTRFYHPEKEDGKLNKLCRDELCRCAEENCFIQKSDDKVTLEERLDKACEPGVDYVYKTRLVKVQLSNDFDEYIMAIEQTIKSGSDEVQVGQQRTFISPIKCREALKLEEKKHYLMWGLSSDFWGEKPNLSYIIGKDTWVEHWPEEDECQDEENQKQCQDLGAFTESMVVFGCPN

B1: recombinant CD11a A domain (receptor, human, UniProt P20701 153-332, looked up)
chain: GNVDLVFLFDGSMSLQPDEFQKILDFMKDVMKKLSNTSYQFAAVQFSTSYKTEFDFSDYVKRKDPDALLKHVKHMLLLTNTFGAINYVATEVFREELGARPDATKVLIIITDGEATDSGNIDAAKDIIRYIIGIGKHFQTKESQETLHKFASKPASEFVKILDTFEKLKDLFTELQKKIY
notes: domain: A domain; Expressed as a GST fusion in E. coli, used as such or released by thrombin; also called r11aA; rCD11a A-domain
binding result: no binding
